Measured values: patent publication US20130123173A1, “CREATION OF OXIDATION-RESISTANT HDL MIMETIC PEPTIDES” (The Regents of the University of California, priority 2010, published 2013)
Entries after “also recorded” stand apart in the source; their conditions may differ.

Key:
[1] = α-helical content (secondary structure) of peptides with and without acrolein; format: physicochemical; conditions: for α-helical content: 10 mM phosphate buffer (pH=7.4); for α-helical content, comparison in words: FIG. 2 legend, vs ATI-5261 control or vs untreated peptide
Protocol: FIG. 2 provides data showing the % α-helical content of ATI-5261 and the K5, 25→R analog peptide. Peptides in 10 mM phosphate buffer (pH=7.4) were analyzed. […] Biosyn. denotes source (commercial vendor) used to synthesize peptides (same for all peptides).

J774 macrophages [2] = conditions: background statement; cited from earlier work
J774 macrophages [3] = assay: Cholesterol efflux from cAMP-treated J774 macrophages (ABCA1 cholesterol efflux); format: cell-based; conditions: for change of cholesterol efflux activity upon exposure to acrolein: excess molar acrolein; for cholesterol efflux activity: no oxidant exposure, lipid-free peptides, cAMP-treated J774 macrophages
Protocol: FIG. 1 provides data showing the sensitivity of ABCA1 efflux peptide ATI-5261 and an analog to acrolein. ATI-5261 was engineered with arginine (R) in place of lysine (K) at positions 5 and 25 (K5, 25/R), creating an oxidation-resistant analog. […] Panel B. Dependence of cholesterol efflux on ABCA1 expression, as judged with and without cAMP (no oxidant exposure). Peptides were used in lipid-free form at […]. Panel C. Peptides were incubated (37° C., 24 h) with acrolein at a molar ratio of 50:1 (acrolein:peptide) in the presence of DTPA; excess aminoguanidine was added to terminate reactions and peptides dialyzed to PBS. Cholesterol efflux (8 h) was assessed using cAMP-treated J774 cells and peptides at 2 mg/ml. Values are % of control efflux with peptides not treated with acrolein.
Panel D. Impact of varying molar ratio of acrolein relative to ATI-5261 on cholesterol efflux from cAMP treated J774 cells.
Suitable cholesterol efflux assays are described in, e.g., Bielicki, J. K and Oda, M. N., Biochemistry, 41:2089-2096 (2002); Jia et al., Biochem. Biophys. Res. Common., 297:206-213 (2002). In some embodiments, a polypeptide known to mediate cholesterol efflux (e.g., helix 9/10 of Apo A-I) is used to screen for additional mediators of cholesterol efflux in a cell based assay. For example, cell lines in which cholesterol efflux can be enhanced using a cAMP analog that up-regulates ABCA1 protein expression (e.g., J774 macrophages) can conveniently be used to assess the ability of a polypeptide of the present invention to mediate cholesterol efflux. The cells are incubated with labeled cholesterol (e.g., [^3H]cholesterol) under conditions appropriate for cholesterol uptake by the cells. Thus, cAMP or cAMP analogs (e.g., CPT-cAMP) are incubated with the cells for a suitable time before the initiation of cellular cholesterol efflux, i.e., prior to contacting the cells with a test polypeptide. Measurement of labeled cholesterol appearing in the medium is used to determine the cholesterol efflux mediating activity of the test polypeptide.

atherosclerosis = conditions: mice fed high-fat western-diet; cited from earlier work
[4] = SDS-PAGE analysis of peptides following exposure to acrolein (cross-linking); format: physicochemical; conditions: 20-fold molar excess of acrolein, 37° C., 20 h
Protocol: Peptides ATI-5261 and K5,25 were exposed to 20-fold molar excess of acrolein or buffer alone and incubated 37° C. for 20 h. Lane 1—MW standards (kDa); lane 2, K5,25→R peptide exposed to acrolein; Lane3, ATI-5261 exposed to acrolein; lane 4, K5, 25→R peptide buffer control; Lane 5, ATI-5261 buffer control. Peptide loads were 3 μg/well.

[5] = test system: macrophage reverse cholesterol transport; assay: Macrophage reverse cholesterol transport upon exposure to oxidative stress; format: in vivo; conditions: vs ATI-5261
ABCA1 = ABCA1 (UniProt P41233 1-2261, limits assumed); assay: cell-based or functional assay
Sequence of ABCA1 (P41233 whole entry): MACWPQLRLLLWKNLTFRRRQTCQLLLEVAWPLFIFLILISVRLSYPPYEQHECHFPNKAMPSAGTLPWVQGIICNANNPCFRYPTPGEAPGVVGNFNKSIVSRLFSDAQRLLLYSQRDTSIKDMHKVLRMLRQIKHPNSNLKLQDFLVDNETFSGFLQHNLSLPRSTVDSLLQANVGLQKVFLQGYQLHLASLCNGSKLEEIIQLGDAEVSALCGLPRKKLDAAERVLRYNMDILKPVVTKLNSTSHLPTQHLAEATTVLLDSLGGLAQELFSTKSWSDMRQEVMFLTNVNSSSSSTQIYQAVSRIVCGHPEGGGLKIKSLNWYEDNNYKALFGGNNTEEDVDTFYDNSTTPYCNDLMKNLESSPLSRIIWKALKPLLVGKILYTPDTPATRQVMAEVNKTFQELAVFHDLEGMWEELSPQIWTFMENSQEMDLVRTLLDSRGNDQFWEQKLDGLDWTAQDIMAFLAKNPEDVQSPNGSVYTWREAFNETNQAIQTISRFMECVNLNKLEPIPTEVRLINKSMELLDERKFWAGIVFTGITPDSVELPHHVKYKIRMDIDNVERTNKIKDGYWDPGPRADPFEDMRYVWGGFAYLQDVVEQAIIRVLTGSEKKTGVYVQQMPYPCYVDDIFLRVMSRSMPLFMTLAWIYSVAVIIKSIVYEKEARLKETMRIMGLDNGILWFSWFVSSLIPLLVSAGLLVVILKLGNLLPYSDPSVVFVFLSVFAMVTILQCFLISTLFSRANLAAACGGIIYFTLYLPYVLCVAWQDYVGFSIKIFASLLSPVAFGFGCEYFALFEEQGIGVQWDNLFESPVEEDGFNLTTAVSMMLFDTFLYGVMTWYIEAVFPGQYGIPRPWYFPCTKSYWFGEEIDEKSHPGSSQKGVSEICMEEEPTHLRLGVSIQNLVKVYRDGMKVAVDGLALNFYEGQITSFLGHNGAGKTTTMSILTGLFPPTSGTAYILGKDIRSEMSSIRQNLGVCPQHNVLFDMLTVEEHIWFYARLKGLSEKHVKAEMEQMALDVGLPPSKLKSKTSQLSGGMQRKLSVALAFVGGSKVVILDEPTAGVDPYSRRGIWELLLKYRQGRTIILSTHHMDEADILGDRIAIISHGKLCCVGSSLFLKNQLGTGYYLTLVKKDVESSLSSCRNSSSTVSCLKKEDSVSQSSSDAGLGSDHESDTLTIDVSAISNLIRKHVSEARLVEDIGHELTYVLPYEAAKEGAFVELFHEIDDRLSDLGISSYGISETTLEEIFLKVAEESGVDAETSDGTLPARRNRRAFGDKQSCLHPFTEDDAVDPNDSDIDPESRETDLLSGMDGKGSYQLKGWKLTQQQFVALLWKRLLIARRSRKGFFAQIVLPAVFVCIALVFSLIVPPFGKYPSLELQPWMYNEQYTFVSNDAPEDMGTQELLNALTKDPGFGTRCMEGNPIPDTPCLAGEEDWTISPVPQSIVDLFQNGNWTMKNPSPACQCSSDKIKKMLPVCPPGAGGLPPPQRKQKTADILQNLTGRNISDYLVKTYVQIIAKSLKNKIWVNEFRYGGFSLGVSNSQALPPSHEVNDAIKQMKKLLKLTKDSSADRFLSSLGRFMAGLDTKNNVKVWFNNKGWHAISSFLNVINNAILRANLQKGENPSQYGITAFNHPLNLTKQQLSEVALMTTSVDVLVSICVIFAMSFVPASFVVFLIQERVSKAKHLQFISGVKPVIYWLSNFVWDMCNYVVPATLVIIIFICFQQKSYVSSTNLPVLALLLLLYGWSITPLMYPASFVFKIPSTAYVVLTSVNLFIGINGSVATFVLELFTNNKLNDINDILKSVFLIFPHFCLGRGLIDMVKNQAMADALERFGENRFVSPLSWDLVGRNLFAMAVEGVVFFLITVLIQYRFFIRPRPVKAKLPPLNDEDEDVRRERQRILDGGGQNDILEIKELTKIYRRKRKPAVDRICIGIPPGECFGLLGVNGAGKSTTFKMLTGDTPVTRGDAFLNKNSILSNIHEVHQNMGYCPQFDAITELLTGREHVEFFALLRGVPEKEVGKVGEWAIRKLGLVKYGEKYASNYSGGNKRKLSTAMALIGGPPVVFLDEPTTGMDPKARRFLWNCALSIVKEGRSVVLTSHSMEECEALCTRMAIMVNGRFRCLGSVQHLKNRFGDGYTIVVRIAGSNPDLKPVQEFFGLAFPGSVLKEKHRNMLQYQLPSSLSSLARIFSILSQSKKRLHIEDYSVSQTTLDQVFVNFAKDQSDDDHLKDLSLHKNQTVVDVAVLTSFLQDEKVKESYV

| reduction of cholesterol efflux activity after acrolein exposure, molar acrolein:peptide ratio 5:1 (ABCA1) | reduction of cholesterol efflux activity after acrolein exposure, molar acrolein:peptide ratio 10:1 (ABCA1) | reduction of cholesterol efflux activity after acrolein exposure, molar acrolein:peptide ratio 20:1 (ABCA1) | Molecule | α-helical content ([1]; +Acrolein) | α-helical content, comparison in words [1] | α-helical content ([1]; no acrolein) | molar potency for ABCA1 cholesterol efflux relative to native apoA-I (J774 macrophages [2]) | change of cholesterol efflux activity upon exposure to acrolein (J774 macrophages [3]) | cholesterol efflux activity (J774 macrophages [3]) | effect on atherosclerosis (atherosclerosis) | cross-linking of the peptide after acrolein treatment [4] | macrophage reverse cholesterol transport [5] | augmentation of cholesterol efflux activity by acrolein (J774 macrophages [3]; acrolein-treated peptide vs untreated peptide) | cholesterol efflux activity (J774 macrophages [3]; listed as K→R) |
| --- | --- | --- | --- | --- | --- | --- | --- | --- | --- | --- | --- | --- | --- | --- |
|  |  |  | EVRSKLEEWFAAFREFAEEFLARLKS (synthetic amphipathic alpha helix HDL mimetic peptide ATI-5261 susceptible to oxidation that stimulates ATP binding cassette protein ABCA1-dependent cholesterol efflux based on apolipoprotein AI (ApoA-I) alpha-helical motif) [26-mer prototype/parent HDL mimetic ABCA1 efflux peptide, oxidation susceptible, reference compound] | 48.3% | significantly lower helical content | 72.7% | nearly the same molar potency as native apoA-I | marked decrease in cholesterol efflux activity | stimulated cholesterol efflux (4 h) efficiently | reduce substantial atherosclerosis | substantial cross-linking |  |  |  |
|  |  |  | EVRSRLEEWFAAFREFAEEFLARLRS [K5,25→R, ATI-5261 with arginine in place of lysine at positions 5 and 25] | 72.6% | lower α-helical content compared to the ATI-5261 control; also recorded: increase in α-helical content | 56.8% |  | increased upon exposure to acrolein | stimulated cholesterol efflux (4 h) efficiently |  |  | greatly improved macrophage reverse cholesterol transport | ~70% | no effect on cholesterol efflux activity |
| 50% | 70% | 93% | EVRSKLEEWFAAFREFAEEFLARLKS [ATI-5261] |  |  |  |  |  |  |  |  |  |  |  |
